Source: patent US20130004513A1

Target: Human CD4 on CD4+CD25+ regulatory T cells of healthy donors (human) (UniProt P01730)
Experiment: cell-based or functional assay

% Inh2: 7%
% Inh3: 5.2%
Avg. % inhibition: 5.1%
Substance: Negative control (antibody)
